The text below walks through data of patent publication US20030124664A1.

In the assay the target is human growth hormone (hGH) with the N-terminal phenylalanine, expressed and secreted from plasmid phGH4R (human) (UniProt P01241). The experiment in a line: cell-based or functional assay.
human growth hormone (hGH) with the N-terminal phenylalanine, expressed and secreted from plasmid phGH4R (human), sequence (P01241 27-217): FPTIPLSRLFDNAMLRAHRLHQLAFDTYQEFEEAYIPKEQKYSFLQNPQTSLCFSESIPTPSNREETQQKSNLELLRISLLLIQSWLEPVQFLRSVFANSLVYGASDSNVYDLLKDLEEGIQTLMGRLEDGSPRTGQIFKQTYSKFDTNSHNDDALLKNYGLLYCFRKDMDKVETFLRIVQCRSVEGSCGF

B1: native-sequence aminopeptidase b2324 (product of the E. coli chromosomal yfcK gene) (enzyme)
chain: MRSLTHIAKIEPPPVRRVTYVKHYSIQPANLEFNAEGTPVSRDFDDVYFSNDNGLEETRYVFLGGNQLEVRFPEHPHPLFVVAESGFGTGLNFLTLWQAFDQFREAHPQAQLQRLHFISFEKFPLTRADLALAHQHWPELAPWAEQLQAQWPMPLPGCHRLLLDEGRVTLDLWFGDINELTSQLDDSLNQKVDAWFLDGFAPAKNPDMWTQNLFNAMARLARPGGTLATFTSAGFVRRGLQDAGFTMQKRKGFGRKREMLCGVMEQTLPLPCSAPWFNRTGSSKREAAIIGGGIASALLSLALLRRGWQVTLYCADEAPALGASGNRQGALYPLLSKHDEALNRFFSNAFTFARRFYDQLPVKFDHDWCGVTQLGWDEKSQHKIAQMLSMDLPAELAVAVEANAVEQITGVATNCSGITYPQGGWLCPAELTRNVLELAQQQGLQIYYQYQLQNLSRKDDCWLLNFAGDQQATHSVVVLANGHQISRFSQTSTLPVYSVAGQVSHIPTTPELAELKQVLCYDGYLTPQNPANQHHCIGASYHRGSEDTAYSEDDQQQNRQRLIDCFPQAQWAKEVDVSDKEARCGVRCATRDHLPMVGNVPDYEATLVEYASLAEQKDEAVSAPVFDDLFMFAALGSRGLCSAPLCAEILAAQMSDEPIPMDASTLAALNPNRLWVRKLLKGKAVKAG
The molecule B1 came in with an Area % des-phe hGH, control strain lysate, 37° C., 0 h (LC-MS) of 0.36 Area %; an Area % des-phe hGH, control strain lysate, 37° C., 15 h (LC-MS) of 46.8 Area %; an Area % des-phe hGH, control strain lysate, 37° C., 24 h (LC-MS) of 55.3 Area %; an Area % des-phe hGH, control strain lysate, RT, 0 h (LC-MS) of 0.36 Area %. For the same molecule, the Area % des-phe hGH, control strain lysate, RT, 15 h (LC-MS) came to 1.24 Area %; the Area % des-phe hGH, control strain lysate, RT, 24 h (LC-MS) stood at 2.15 Area %; the Area % des-phe hGH, control strain lysate, RT, 42 h (LC-MS) came to 3 Area %.
